Tests used:
[1] = molecular target: human uPA (form not stated) (human, UniProt P00749); experiment: ELISA
[2] = molecular target: full-length uPA (human urokinase plasminogen activator) (Homo sapiens, UniProt P00749, biotin (biotinylated antigen on streptavidin biosensors)); experiment: BLI

B1: AB2 Fab (Fab, V domains shown)
VH: QLTQSGGGLVKPGRSLRLSCTASGFTFGDYAMSWVRQAPGKGLEWVGFVRSESAGATTEYAASVKGRFTISRDDSKSIAYLQMNALKTEDTAVYYCIRGANWNWGQGTLVTVSS
VL: EIVLTQSPLSLPVTPGEPASISCRSSQLMNRNGNNFLDWYLQKPGQSPQLLIYLGSNRAPGVPDRFSGSGSGTDFTLKISRVEAEDVGVYYCMARVEAPYSFGQGTKLEIR
Q: Which results are given for B1?
A: binding result [1]: binds; binding result [2]: binds
